Reference: article PMC4115224, “Real-Time Interaction between TBP and the TATA Box of the Human Triosephosphate Isomerase Gene Promoter in the Norm and Pathology”

B1: TPI TATA box, -24T>G SNP (G allele) (dsDNA)
DNA 1: GCTCTATAGAAGTGG
DNA 2: CCACTTCTATAGAGC
B2: TPI TATA box, wild type (T allele) (dsDNA)
DNA 1: GCTCTATATAAGTGG
DNA 2: CCACTTATATAGAGC

How the values were obtained:
[1] = biological target: T1, TATA-binding protein (TBP) (human, UniProt P20226 1-339); assay: stopped-flow FRET; kon (0.2 ± 0.1)e6 M-1 s-1; koff (8.9 ± 1.2)e-2 s-1; KA 2.3e6 M-1; 25 C; 25 C; 0.1 uM DNA duplex; TBP 0.1-2 uM (T allele) or 0.4-4 uM (G allele); buffer, salt and pH not given in the material; conditions: protein: recombinant; label: Cy3/Cy5 FRET pair at the duplex ends
[2] = biological target: T1, TATA-binding protein (TBP); assay: stopped-flow FRET; kon (1.1 ± 0.1)e6 M-1 s-1; koff (2.8 ± 0.1)e-3 s-1; KA 3.7e8 M-1; 25 C; 25 C; 0.1 uM DNA duplex; TBP 0.1-2 uM (T allele) or 0.4-4 uM (G allele); buffer, salt and pH not given in the material; conditions: protein: recombinant; label: Cy3/Cy5 FRET pair at the duplex ends

T1 sequence (P20226 whole entry): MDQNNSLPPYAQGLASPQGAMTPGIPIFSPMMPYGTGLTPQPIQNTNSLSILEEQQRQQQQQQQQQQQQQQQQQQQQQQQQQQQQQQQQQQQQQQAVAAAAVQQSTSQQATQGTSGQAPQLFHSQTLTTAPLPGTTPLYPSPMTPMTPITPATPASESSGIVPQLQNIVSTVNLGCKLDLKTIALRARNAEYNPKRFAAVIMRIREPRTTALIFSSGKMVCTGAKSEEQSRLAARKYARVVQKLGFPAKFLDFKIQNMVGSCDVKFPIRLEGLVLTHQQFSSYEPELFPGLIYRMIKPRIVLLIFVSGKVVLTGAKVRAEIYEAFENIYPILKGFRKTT

Binder | Kd [1] [nM] | Kd [2] [nM]
B1 | 400 | 
B2 |  | 2.7
